Laboratory results from publication doi:10.1101/2023.01.23.525191.
“And” between values parts separate entries of the source, which are not always exact repeats. Equal entries are not always repeated.

Columns and labels:
[1] = target: recombinant untagged rat RBPMS-A ΔC20 (rat); experiment: SEC
[2] = target: recombinant untagged rat RBPMS-A ΔC20 (rat); experiment: cross-linking
[3] = target: recombinant untagged rat RBPMS-A ΔC20 (rat); experiment: AUC
[4] = target: recombinant untagged rat RBPMS-A ΔC20 (rat); experiment: AUC; remark: listed apart in the source

stoichiometry N [1]: 2
stoichiometry N [2]: 3 and 4
stoichiometry N [3]: 2
stoichiometry N [4]: 2 and 3
Substance: recombinant untagged rat RBPMS-A ΔC20 (domain or fragment)
